Tests used:
[1] = biological target: FLAG-RACK1 WD5–7 (human RACK1 in which WD40 domains 1 to 4 have been deleted) (human); experiment: co-IP; anti-FLAG immunoprecipitation (protein A magnetic beads) from extracts of mRNA-injected Xenopus embryos in EB buffer, 1 h at 4°C; Western blots with anti-xMELK, anti-RACK1, anti-FLAG or anti-myc antibodies; uninjected embryos as control
[2] = biological target: FLAG-RACK1 WD1–4 (human RACK1 in which WD40 domains 5 to 7 have been deleted) (human); experiment: as above

fold of myc-xMELK co-immunoprecipitated (myc/FLAG ratio) compared to full length FLAG-RACK1 [1]: 0.7 times | fold of myc-xMELK co-immunoprecipitated (myc/FLAG ratio) compared to full length FLAG-RACK1 [2]: 2.1 times
Substance: myc-tagged xMELK (from UniProt Q91821 1-651) (enzyme)

Reference: publication PMC3798187
